# Experimental data from US10363214B2, “Method for treating atrophic age related macular degeneration” (Allergan, Inc., priority 2008, dated 2019).
# B1: ranibizumab (antibody, chains of the INN, looked up, V domains shown)
# VH: EVQLVESGGGLVQPGGSLRLSCAASGYDFTHYGMNWVRQAPGKGLEWVGWINTYTGEPTYAADFKRRFTFSLDTSKSTAYLQMNSLRAEDTAVYYCAKYPYYYGTSHWYFDVWGQGTLVTVSS
# VL: DIQLTQSPSSLSASVGDRVTITCSASQDISNYLNWYQQKPGKAPKVLIYFTSSLHSGVPSRFSGSGSGTDFTLTISSLQPEDFATYYCQQYSTVPWTFGQGTKVEIK
# modifications: Fab
# Assays:
# [1] = 1.25 to 2.5 mg aqueous bevacizumab into the vitreous cavity; animal and human studies; cited from earlier work
# ARPE-19 cells = assay: ARPE-19 cell viability (MTT) assay with polysorbate 80; format: cell-based
# Protocol: An experiment was carried out to examine the toxicity of a polysorbate retinal penetrant enhancer to retinal pigment epithelial (“RPE”) cells. Thus, ARPE-19 cells (see Dunn K. et al., ARPE-19, a human retinal pigment epithelial cell line with differentiated properties, Exp Eye Res. 1996 Feb;62(2):155-69) were incubated in vitro in concentrations of polysorbate 80 ranging from 0% to 0.10% w/w and a cell viability assay was performed.
# The protocol for this in vitro experiment was as follows: ARPE-19 cells (passage 11 to 23) were seeded the day prior to experimentation in 24 well-plates at 125.000 cells/well in DMEM:F12 medium supplemented with 10% FBS. Time course and dose response were simultaneously performed on ARPE-19 cells. Parameters of incubating solutions such as pH, osmolarity were measured for every concentration. Times of incubation were 24 h, 48 h, 72 h. One negative (non-treated) and one positive control (5 mM H2O2) were included. Non-treated condition was cell culture medium supplemented with serum. 5 mM H2O2 was prepared from 3% H2O2 stock solution (875 mM). Concentrations applied to cells were determined considering several parameters, such as • (a) commonly used concentration in formulation. • (b) limiting concentration to compound solubility. • (c) limiting concentration to applicable viscosity, osmolarity and pH values. In a first approach, the concentrations covered a wide range (Exp.1). After preliminary results, a second set of experiments (Exp.2 to 4) determined more accurately compound concentrations leading to inhibition of 50% of cell viability, based on cell viability assay and morphological aspect. […] Results from MTT assay were expressed as a percentage of cell viability calculated as follows: % cell viability=ODtest/ODcontrol×100. […] Gap concentration bringing to 50% cell viability was therefore determined. Morphological appearance was analyzed by semi-quantitative scoring ranging from 5 to 1, from normal to lethal phenotype respectively.
# wet AMD eye = assay: Monthly intravitreal injections in wet AMD eye of patient (paper case examples); format: in vivo, human
# Text: A person has age-related macular degeneration and cataracts in both eyes. […] The patient can complain of blurry vision and metamorphopsia in the right eye and examination can reveal visual acuity of 20/400 right eye, 20/32 left eye. Retinal examination can show subfoveal choroidal neovascularization (CNV) (right eye wet AMD) approximately 1 disc area in size with surrounding hemorrhage and edema in the right eye. The fellow left eye can show high-risk features for developing wet AMD such as soft, amorphic appearing drusen that included the fovea but no signs of choroidal neovascularization and can be confirmed by fluorescein angiography (left eye dry AMD).
# A person can wake up with blurry vision in the left eye. They can have a history of glaucoma, s/p cataract removal with IOLs (intraocular lenses), and dry AMD in both eyes and can be taking Alphagan P eye drops. The patient's ophthalmologist can examine them and they can be diagnosed with left eye wet AMD and sent immediately to a retinal specialist. The vision can be 20/25 in the right eye and 20/200 in the left eye. Retinal examination can show dry changes in the right eye macula but high risk features such as large drusen and numerous pigmentary changes in the subfoveal region. The left eye macula can show a subfoveal CNV approximately 2 disc areas in size with surrounding macular edema and intraretinal hemorrhages. Fluorescein angiography can confirm the presence of left eye CNV predominantly classic in appearance. […] Since the patient was at high risk for developing CNV in their right eye, and the vision in the left eye may not appreciably improve over the 3 month period, they can receive an intravitrea injection into the right eye of 50 ul comprising 4.8 mg of ranibizumab incorporated into PLGA microspheres, to prophylax against the development of CNV in the right eye. Polysorbate 20 PLGA microspheres with an in vitro release rate of 5 ug/day can also be placed in the formulation to enhance retinal permeability. The microspheres can be placed in a partially cross-linked hyaluronic acid (HA) at a HA concentration of 2.1%. Such a cross-linked HA can be obtained from Allergan Medical (Irvine, Calif.) under the brand names Juvederm Ultra Plus, Juvederm 30, Captique, and Voluma.
molecule,measurement,setting,value
bevacizumab,intraocular toxicity,[1],without significant intraocular toxicity
polysorbate 80,polysorbate 80 concentrations associated with declining RPE cell viability,"ARPE-19 cells; ARPE-19 cells, 24, 48 and 72 h incubation, also printed as 0.6 mg/ml, FIG. 1",over 0.06%
same,polysorbate 80 concentrations associated with cell viabilities of less than 50%,"ARPE-19 cells; ARPE-19 cells, 24, 48 and 72 h incubation, also printed as 0.9 mg/ml, FIG. 1",> 0.09%
same,total maximum weight of polysorbate in the vitreous at one time,ARPE-19 cells; assuming a vitreous volume of 4 ml in a human eye,≤ 3.6 mg
B1,"edema and hemorrhage, right wet AMD eye","wet AMD eye; Example 1, within 4 months",resolution of the edema and hemorrhage
same,"visual acuity, right wet AMD eye","wet AMD eye; Example 1, within 4 months, baseline 20/400",20/125
same,left eye visual acuity (wet AMD eye),"wet AMD eye; Example 3, 3 month period, baseline 20/200",20/100
same,"retinal edema, left wet AMD eye","wet AMD eye; Example 3, over a 3 month period",resolution of the retinal edema
